From patent US20200165325A1

How the values were obtained:
[1] = target: Env (gp120) of HIV-1 strain 0815.v3.c3 (HIV-1)
[2] = target: Env (gp120) of HIV-1 strain 1006_11_C3_1601 (HIV-1)
[3] = target: Env (gp120) of HIV-1 strain 1056_10_TA11_1826 (HIV-1)
[4] = target: Env (gp120) of HIV-1 strain 231966.c02 (HIV-1)
[5] = target: Env (gp120) of HIV-1 strain 3103.v3.c10 (HIV-1)
[6] = target: Env (gp120) of HIV-1 strain 3301.v1.c24 (HIV-1)
[7] = target: Env (gp120) of HIV-1 strain 3415.v1.c1 (HIV-1)
[8] = target: Env (gp120) of HIV-1 strain 3817.v2.c59 (HIV-1)
[9] = target: Env (gp120) of HIV-1 strain 620345.c01 (HIV-1)
[10] = target: Env (gp120) of HIV-1 strain 6535.3 (HIV-1)
[11] = target: Env (gp120) of HIV-1 strain 6545.v4.c1 (HIV-1)
[12] = target: Env (gp120) of HIV-1 strain 703357.C02 (HIV-1)
[13] = target: Env (gp120) of HIV-1 strain 928-28 (HIV-1)
[14] = target: Env (gp120) of HIV-1 strain C1080.c03 (HIV-1)
[15] = target: Env (gp120) of HIV-1 strain C3347.c11 (HIV-1)
[16] = target: Env (gp120) of HIV-1 strain CAAN5342.A2 (HIV-1)
[17] = target: Env (gp120) of HIV-1 strain CNE17 (HIV-1)
[18] = target: Env (gp120) of HIV-1 strain CNE20 (HIV-1)
[19] = target: Env (gp120) of HIV-1 strain CNE30 (HIV-1)
[20] = target: Env (gp120) of HIV-1 strain CNE53 (HIV-1)
[21] = target: Env (gp120) of HIV-1 strain CNE58 (HIV-1)
[22] = target: Env (gp120) of HIV-1 strain Ce0682_E4 (HIV-1)
[23] = target: Env (gp120) of HIV-1 strain Ce1176_A3 (HIV-1)
[24] = target: Env (gp120) of HIV-1 strain Ce2010_F5 (HIV-1)
[25] = target: Env (gp120) of HIV-1 strain Ce703010054_2A2 (HIV-1)
[26] = target: Env (gp120) of HIV-1 strain Du156.12 (HIV-1)
[27] = target: Env (gp120) of HIV-1 strain P0402_c2_11 (HIV-1)
[28] = target: Env (gp120) of HIV-1 strain P1981_C5_3 (HIV-1)
[29] = target: Env (gp120) of HIV-1 strain PVO.4 (HIV-1)
[30] = target: Env (gp120) of HIV-1 strain Q259.d2.17 (HIV-1)
[31] = target: Env (gp120) of HIV-1 strain Q461.e2 (HIV-1)
[32] = target: Env (gp120) of HIV-1 strain Q769.d22 (HIV-1)
[33] = target: Env (gp120) of HIV-1 strain R1166.c01 (HIV-1)
[34] = target: Env (gp120) of HIV-1 strain R2184.c04 (HIV-1)
[35] = target: Env (gp120) of HIV-1 strain SC422661.8 (HIV-1)
[36] = target: Env (gp120) of HIV-1 strain T250-4 (HIV-1)
[37] = target: Env (gp120) of HIV-1 strain T251-18 (HIV-1)
[38] = target: Env (gp120) of HIV-1 strain T255-34 (HIV-1)
[39] = target: Env (gp120) of HIV-1 strain T257-31 (HIV-1)
[40] = target: Env (gp120) of HIV-1 strain T278-50 (HIV-1)
[41] = target: Env (gp120) of HIV-1 strain THRO4156.18 (HIV-1)
[42] = target: Env (gp120) of HIV-1 strain TRO.11 (HIV-1)
[43] = target: Env (gp120) of HIV-1 strain WEAU_d15_410_787 (HIV-1)
[44] = target: Env (gp120) of HIV-1 strain X1193_c1 (HIV-1)
[45] = target: Env (gp120) of HIV-1 strain X2131_C1_B5 (HIV-1)
[46] = target: Env (gp120) of HIV-1 strain ZM109F.PB4 (HIV-1)
[47] = target: Env (gp120) of HIV-1 strain ZM197M.PB7 (HIV-1)
[48] = target: Env (gp120) of HIV-1 strain ZM214M.PL15 (HIV-1)
[49] = target: Env (gp120) of HIV-1 strain ZM247v1(Rev-) (HIV-1)
[50] = target: Env (gp120) of HIV-1 strain ZM249M.PL1 (HIV-1)

Substance: NIH45-46 IgG (antibody)
- neutralization IC50 [1]: 0.014 µg/mL
- neutralization IC50 [2]: 0.027 µg/mL
- neutralization IC50 [3]: 0.094 µg/mL
- neutralization IC50 [4]: 1.64 µg/mL
- neutralization IC50 [5]: 1.77 µg/mL
- neutralization IC50 [6]: 9 ng/mL
- neutralization IC50 [7]: 0.022 µg/mL
- neutralization IC50 [8]: > 50 µg/mL
- neutralization IC50 [9]: > 50 µg/mL
- neutralization IC50 [10]: 0.23 µg/mL
- neutralization IC50 [11]: > 50 µg/mL
- neutralization IC50 [12]: 19.2 µg/mL
- neutralization IC50 [13]: 0.23 µg/mL
- neutralization IC50 [14]: 2.48 µg/mL
- neutralization IC50 [15]: 0.029 µg/mL
- neutralization IC50 [16]: 0.15 µg/mL
- neutralization IC50 [17]: 0.261 µg/mL
- neutralization IC50 [18]: 7.83 µg/mL
- neutralization IC50 [19]: 0.309 µg/mL
- neutralization IC50 [20]: 8 ng/mL
- neutralization IC50 [21]: 0.43 µg/mL
- neutralization IC50 [22]: 0.054 µg/mL
- neutralization IC50 [23]: 0.93 µg/mL
- neutralization IC50 [24]: 0.101 µg/mL
- neutralization IC50 [25]: 0.159 µg/mL
- neutralization IC50 [26]: 0.02 µg/mL
- neutralization IC50 [27]: 0.073 µg/mL
- neutralization IC50 [28]: 0.08 µg/mL
- neutralization IC50 [29]: 0.12 µg/mL
- neutralization IC50 [30]: 0.043 µg/mL
- neutralization IC50 [31]: 0.076 µg/mL
- neutralization IC50 [32]: 9 ng/mL
- neutralization IC50 [33]: 0.31 µg/mL
- neutralization IC50 [34]: 0.034 µg/mL
- neutralization IC50 [35]: 0.06 µg/mL
- neutralization IC50 [36]: > 50 µg/mL
- neutralization IC50 [37]: 1.35 µg/mL
- neutralization IC50 [38]: 0.71 µg/mL
- neutralization IC50 [39]: 0.49 µg/mL
- neutralization IC50 [40]: > 50 µg/mL
- neutralization IC50 [41]: 1.91 µg/mL
- neutralization IC50 [42]: 1.61 µg/mL
- neutralization IC50 [43]: 5 ng/mL
- neutralization IC50 [44]: 0.021 µg/mL
- neutralization IC50 [45]: 0.23 µg/mL
- neutralization IC50 [46]: 0.095 µg/mL
- neutralization IC50 [47]: 0.15 µg/mL
- neutralization IC50 [48]: 0.17 µg/mL
- neutralization IC50 [49]: 2.94 µg/mL
- neutralization IC50 [50]: 0.017 µg/mL

Substance: NIH45-46^G54F IgG (antibody)
- neutralization IC50 [1]: < 0.001 µg/mL
- neutralization IC50 [2]: 0.003 µg/mL
- neutralization IC50 [3]: 0.064 µg/mL
- neutralization IC50 [4]: 0.06 µg/mL
- neutralization IC50 [5]: 0.37 µg/mL
- neutralization IC50 [6]: 1 ng/mL
- neutralization IC50 [7]: < 0.001 µg/mL
- neutralization IC50 [8]: > 50 µg/mL
- neutralization IC50 [9]: > 50 µg/mL
- neutralization IC50 [10]: 0.07 µg/mL
- neutralization IC50 [11]: > 50 µg/mL
- neutralization IC50 [12]: 7.91 µg/mL
- neutralization IC50 [13]: 0.11 µg/mL
- neutralization IC50 [14]: 0.36 µg/mL
- neutralization IC50 [15]: 0.015 µg/mL
- neutralization IC50 [16]: 0.1 µg/mL
- neutralization IC50 [17]: 0.075 µg/mL
- neutralization IC50 [18]: 0.53 µg/mL
- neutralization IC50 [19]: 0.1 µg/mL
- neutralization IC50 [20]: 5 ng/mL
- neutralization IC50 [21]: 0.04 µg/mL
- neutralization IC50 [22]: 0.011 µg/mL
- neutralization IC50 [23]: 0.24 µg/mL
- neutralization IC50 [24]: 0.046 µg/mL
- neutralization IC50 [25]: 0.02 µg/mL
- neutralization IC50 [26]: < 0.001 µg/mL
- neutralization IC50 [27]: 0.008 µg/mL
- neutralization IC50 [28]: 0.03 µg/mL
- neutralization IC50 [29]: 0.07 µg/mL
- neutralization IC50 [30]: 0.009 µg/mL
- neutralization IC50 [31]: 0.03 µg/mL
- neutralization IC50 [32]: 5 ng/mL
- neutralization IC50 [33]: 0.4 µg/mL
- neutralization IC50 [34]: 0.015 µg/mL
- neutralization IC50 [35]: 0.04 µg/mL
- neutralization IC50 [36]: > 50 µg/mL
- neutralization IC50 [37]: 0.41 µg/mL
- neutralization IC50 [38]: 0.03 µg/mL
- neutralization IC50 [39]: 0.17 µg/mL
- neutralization IC50 [40]: > 50 µg/mL
- neutralization IC50 [41]: 0.89 µg/mL
- neutralization IC50 [42]: 0.11 µg/mL
- neutralization IC50 [43]: < 1 ng/mL
- neutralization IC50 [44]: < 0.001 µg/mL
- neutralization IC50 [45]: 0.1 µg/mL
- neutralization IC50 [46]: 0.022 µg/mL
- neutralization IC50 [47]: 0.09 µg/mL
- neutralization IC50 [48]: 0.09 µg/mL
- neutralization IC50 [49]: 0.28 µg/mL
- neutralization IC50 [50]: 0.004 µg/mL
